Measurements reported in the supplement of paper PMC12338614.
± gives the uncertainty stated by the source.

B1: library; numbered along this chain (parent)
chain: MEVVDPQQLGMFTEGELMSVGMDTFIHRIDSTEVIYQPRRKRAKLIGKYLMGDLLGEGSYGKVKEVLDSETLCRRAVKILKKKKLRRIPNGEANVKKEIQLLRRLRHKNVIQLVDVLYNEEKQKMYMVMEYCVCGMQEMLDSVPEKRFPVCQAHGYFCQLIDGLEYLHSQGIVHKDIKPGNLLLTTGGTLKISDLGVAEALHPFAADDTCRTSQGSPAFQPPEIANGLDTFSGFKVDIWSAGVTLYNITTGLYPFEGDNIYKLFENIGKGSYAIPGDCGPPLSDLLKGMLEYEPAKRFSIRQIRQHSWFRKKHPPAEAPVPIPPSPDTKDRWRSMTVVPYLEDLHGADEDEDLFDIEDDIIYTQDFTVPGQVPEEEASHNGQRRGLPKAVCMNGTEAAQLSTKSRAEGRAPNPARKACSASSKIRRLSACKQQ

Variants of: B1
Assay: STK11 functional score (HeLa growth suppression), rescaled enrichment; synonymous median = 1, nonsense median = 0 (normalised score)
Conditions: with HeLa; variant type: missense
Outline: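 The values are functional scores: wild-type-corrected log ratios of post- versus pre-selection abundance, rescaled to synonymous and nonsense medians, merged over codons and replicate transfections, and carrying bootstrapped error. They derive from codon-randomised (POPCode), codon-optimised STK11 libraries that Bxb1 integrated at an AAVS1 landing pad in HeLa, with three transfections for each of three regions. Sequencing of tiled gDNA amplicons ran on NextSeq, at ~2 million reads per tile.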

Row | Variant | STK11 functional score
1 | K83T | 0.156 ± 0.58
2 | I267N | 0.995 ± 0.36
3 | L17F | 0.925 ± 0.58
4 | F255H | 0.97 ± 0.25
5 | E407T | 1.61 ± 0.28
6 | N109V | 0.132 ± 0.083
7 | E357M | 1.52 ± 0.29
8 | E57M | 1.26 ± 0.17
9 | L85V | 1.15 ± 0.15
10 | K191S | 1.17 ± 0.19
11 | D115P | 0.396 ± 0.48
12 | G251E | 0.412 ± 0.098
13 | Y36S | 0.558 ± 0.26
14 | L190W | 0.118 ± 0.15
15 | E374S | 1.46 ± 0.33
16 | M139S | 0.816 ± 0.1
17 | D229P | 1.68 ± 0.15
18 | S307P | 1.57 ± 0.27
19 | S31M | 0.857 ± 0.12
20 | Q364H | 0.685 ± 0.66
21 | D350L | 1.6 ± 0.16
22 | E57L | 0.946 ± 0.29
23 | V77D | 0.0184 ± 0.081
24 | I161N | 0.158 ± 0.13

Row | Variant | STK11 functional score
25 | N247H | 1.26 ± 0.26
26 | S232E | 1.36 ± 0.33
27 | L201I | 1.48 ± 0.3
28 | I300R | -0.144 ± 0.081
29 | L400K | 0.775 ± 0.24
30 | L263E | 1.04 ± 0.17
31 | P281L | 1.18 ± 0.11
32 | L117S | 0.291 ± 0.17
33 | E120C | 0.373 ± 0.24
34 | K97T | 1.32 ± 0.48
35 | T367P | 1.41 ± 0.41
36 | L85I | 1.56 ± 0.2
37 | L167I | 1.44 ± 0.25
38 | G233W | 1.16 ± 0.17
39 | E138I | 1.48 ± 0.37
40 | G346C | 1.22 ± 0.13
41 | P281E | 1.3 ± 0.46
42 | L282A | 0.846 ± 0.18
43 | F309R | 0.0957 ± 0.13
44 | V66K | 1.4 ± 0.37
45 | S142G | 1.62 ± 0.16
46 | P323E | 1.56 ± 0.27
47 | N119M | 0.408 ± 0.074
48 | Q371Y | 1.04 ± 0.54

Row | Variant | STK11 functional score
49 | C134W | 0.131 ± 0.097
50 | A406K | 1.28 ± 0.46
51 | G188P | 1.36 ± 0.34
52 | K96N | 1.14 ± 0.35
53 | P319V | 0.772 ± 0.46
54 | P314M | 1.62 ± 0.15
55 | P339V | 0.729 ± 0.19
56 | D352E | 1.15 ± 0.64
57 | E120R | 0.779 ± 0.085
58 | P324E | 1.53 ± 0.098
59 | L427A | 1.6 ± 0.32
60 | D141F | 1.52 ± 0.12
61 | T395L | 1.23 ± 0.19
62 | R301F | 1.55 ± 0.22
63 | M18V | 0.413 ± 0.24
64 | M335V | 1.42 ± 0.13
65 | V243D | -0.0994 ± 0.17
66 | K175S | 0.884 ± 0.23
67 | R104S | 0.76 ± 0.2
68 | T244N | 0.0991 ± 0.1
69 | P217R | 0.3 ± 0.39
70 | T244Q | -0.178 ± 0.32
71 | G215R | 0.426 ± 0.24
72 | Y272H | 1.08 ± 0.32

Row | Variant | STK11 functional score
73 | L105W | 0.397 ± 0.32
74 | K96W | 0.729 ± 0.42
75 | R415N | 1.58 ± 0.34
76 | R75V | 1.27 ± 0.37
77 | R426Y | 1.54 ± 0.26
78 | R426S | 1.5 ± 0.26
79 | R103Y | 1.15 ± 0.18
80 | G251V | -0.0264 ± 0.098
81 | D350I | 1.25 ± 0.2
82 | H154M | 0.597 ± 0.088
83 | M139I | 1.01 ± 0.15
84 | P222M | 0.595 ± 0.11
85 | K84W | 1.14 ± 0.17
86 | G215W | 0.29 ± 0.091
87 | P203L | 1.27 ± 0.73
88 | L105S | 1.29 ± 0.15
89 | L113P | 0.54 ± 0.081
90 | G257S | 1.39 ± 0.13
91 | K122V | 0.86 ± 0.084
92 | E199H | 1.39 ± 0.18
93 | Q137E | 0.452 ± 0.43
94 | N226S | 0.759 ± 0.096
95 | T402G | 1.13 ± 0.21
96 | D208L | 1.36 ± 0.18

Row | Variant | STK11 functional score
97 | L263G | 0.983 ± 0.18
98 | V150K | 1.36 ± 0.28
99 | S334T | 1.18 ± 0.13
100 | P373Q | 1.55 ± 0.27
101 | L105D | 0.494 ± 0.2
102 | L184F | 0.735 ± 0.078
103 | P315A | 1.07 ± 0.15
104 | S401T | 0.884 ± 0.64
105 | N380Y | 1.14 ± 0.4
106 | K311L | 1.04 ± 0.14
107 | Q37G | 1.08 ± 0.14
108 | K423R | 1.17 ± 0.14
109 | Q382F | 1.14 ± 0.28
110 | S59R | 1.5 ± 0.31
111 | E396V | 1.55 ± 0.28
112 | R87I | 1.45 ± 0.17
113 | Y246D | -0.149 ± 0.14
114 | I161L | 0.912 ± 0.23
115 | S307D | 1.49 ± 0.16
116 | E130V | 0.458 ± 0.082
117 | R331I | 1.16 ± 0.2
118 | R106H | 1.62 ± 0.16
119 | G61C | 1.13 ± 0.097
120 | D365V | 1.14 ± 0.41

Row | Variant | STK11 functional score
121 | Y60S | 1.48 ± 0.25
122 | K41T | 1.27 ± 0.49
123 | Q100A | 0.571 ± 0.42
124 | V150W | 0.631 ± 0.074
125 | S193N | 1.61 ± 0.2
126 | H154L | 0.189 ± 0.086
127 | N94L | 0.89 ± 0.17
128 | P281M | 1.31 ± 0.21
129 | S299A | 1.42 ± 0.15
130 | N119W | 1.58 ± 0.17
131 | L140Q | 1.54 ± 0.16
132 | E291N | 0.978 ± 0.52
133 | Y131W | 0.739 ± 0.093
134 | G346N | 1.6 ± 0.19
135 | R74L | 1.42 ± 0.094
136 | H107M | 0.523 ± 0.27
137 | H313L | 1.48 ± 0.18
138 | K403W | 1.54 ± 0.27
139 | V114A | 0.829 ± 0.086
140 | L201D | 0.769 ± 0.11
141 | N94G | 0.953 ± 0.18
142 | C73P | 0.227 ± 0.098
143 | T244E | -0.168 ± 0.099
144 | L140W | -0.107 ± 0.081

Row | Variant | STK11 functional score
145 | L195T | 1.67 ± 0.15
146 | Y362P | 1.58 ± 0.14
147 | P222S | 1.15 ± 0.12
148 | K191I | 1.19 ± 0.51
149 | S240A | 0.891 ± 0.13
150 | V320T | 1.57 ± 0.27
151 | V66M | -0.0689 ± 0.32
152 | G394L | 1.59 ± 0.25
153 | A318Q | 1.61 ± 0.29
154 | S325Q | 1.42 ± 0.32
155 | A398L | 1.16 ± 0.15
156 | A205Q | 1.33 ± 0.29
157 | P38K | 1.6 ± 0.22
158 | L54W | 0.575 ± 0.083
159 | M136Y | -0.238 ± 0.083
160 | K287W | 0.0714 ± 0.29
161 | I424N | 1.44 ± 0.4
162 | M392F | 1.17 ± 0.41
163 | T13R | 1.08 ± 0.37
164 | E120T | 1.43 ± 0.23
165 | S31L | 1.02 ± 0.091
166 | T367G | 1.6 ± 0.14
167 | I161E | -0.456 ± 0.065
